{"source": "patent US20220185853A1", "about": "“AMANTADINE BINDING PROTEIN” (UNIVERSITY OF WASHINGTON, priority 2019, published 2022)", "molecules": {"B1": {"name": "2L6HC3_13: previously characterized design; same backbone parameters as ABP but lacks the amantadine binding site (protein)", "chain": "GTKYELRRALEELEKALRELKKSLDELERSLEELEKNPSEDALVENNRLNVENNKIIVEVLRIIAEVLKINAKSD"}, "B2": {"name": "ABP: de novo designed homo-trimeric amantadine-binding protein, SEQ ID NO:1 (protein)", "chain": "DAQDKLKYLVKQLERALRELKKSLDELERSLEELEKNPSEDALVENNRLNVENNKIIVEVLRIILELAKASAKLA", "modifications": "homotrimer"}, "B3": {"name": "ABP (amantadine-binding protein) (designed binder)", "chain": "GSHMGDAQDKLKYLVKQLERALRELKKSLDELERSLEELEKNPSEDALVENNRLNVENNKIIVEVLRIILELAKASAKLA", "notes": "The measurement row with m1 as both partners means self-association of ABP subunits"}}, "key": {"[1]": {"tested_on": "ABP (amantadine-binding protein)", "experiment": "Thermofluor dye binding assay (differential scanning fluorimetry), amantadine on ABP", "settings": "1 mM amantadine, 5 μM protein, SYPRO orange, 25° C.", "method": "(§1) A synthetic gene encoding ABP was obtained and the protein expressed in E. coli.The design was expressed at high levels in the soluble fraction and was found by SEC-MALS to be a trimer in the presence and absence of amantadine (FIG. 2a). Interactions with amantadine were probed using thermofluor dye binding assay (differential scanning fluorimetry). […] As the protein was heated to 95° C., the fluorescence signal decreased, corresponding to protein aggregation at higher temperatures. […] In contrast, 2L6HC3_13, which has the same backbone parameters but lacks the amantadine binding site, is thermally stable by thermofluor assay, only starting to denature at ˜80° C. (FIG. 2b).\n(§2) Thermofluor assays were performed in SAXS buffer using a CFX96 Touch™ Real-Time PCR machine (Bio-Rad). Thermal stability assays were performed using 45 μL of 5 μM protein (with or without 1 mM amantadine) and 5 μL of freshly prepared 200X SYPRO™ orange (Thermo-Fisher) solution in SAXS buffer. The temperature was ramped from 25 ° C. to 95 ° C. in 0.5 ° C. increments with intervals of 5 s. Fluorescence was read in the FRET scanning mode. The average of three replicates of buffer+SYPRO orange solution (no protein control) was subtracted from the average of three replicates for each sample."}, "ABP_L6Q": {"tested_on": "ABP_L6Q", "experiment": "Thermofluor assay, amantadine on ABP_L6Q", "assay_type": "binding", "settings": "1 mM amantadine, 5 μM protein, SYPRO orange, 25° C.", "method": "(§3) As the protein was heated to 95° C., the fluorescence signal decreased, corresponding to protein aggregation at higher temperatures.\nas §2"}, "2L6HC3_13": {"tested_on": "2L6HC3_13", "experiment": "Thermofluor assay, amantadine on 2L6HC3_13 (scaffold lacking the amantadine binding site)", "settings": "1 mM amantadine", "method": "as §1, §2"}, "ABP": {"tested_on": "ABP", "experiment": "Circular dichroism temperature melt of ABP in the presence of amantadine", "assay_type": "binding", "method": "as §1\n(§4) CD wavelength scans (260 to 195 nm) and temperature melts (25 to 95° C.) were measured using a JASCO™ J-1500 or an AVIV™ model 420 CD spectrometer. Temperature melts monitored […] at 222 nm and were carried out at a heating rate of 4° C/min. Protein samples were prepared at 0.25 mg/mL in phosphate buffered saline (PBS) pH 7.4 in a 0.1 cm cuvette."}, "[2]": {"experiment": "Thermofluor melting curve of the proteins without ligand", "assay_type": "physicochemical", "settings": "for initial fluorescence signal of the apo protein (thermofluor melting curve): 25° C., without amantadine", "method": "as §1, §3, §2"}, "[3]": {"experiment": "Circular dichroism temperature melt of ABP", "assay_type": "physicochemical", "settings": "CD at 25, 75, 95° C., without amantadine", "method": "as §1, §4"}, "[4]": {"experiment": "SEC-MALS oligomeric state", "assay_type": "physicochemical", "settings": "in the presence and absence of amantadine", "method": "as §1"}, "[5]": {"target": "the molecule itself", "experiment": "SEC-MALS; self-association of ABP subunits into a homo-trimer"}}, "note": "Entries after “also recorded” stand apart in the source; their conditions may differ."}
{"molecule": "NC12CC3CC(CC(C3)C1)C2", "note": "[amantadine]", "values": [{"measurement": "initial fluorescence signal of ABP in the presence of amantadine, compared with apo-ABP", "setting": "[1]", "value": "lowered; also recorded: much lower"}, {"measurement": "initial fluorescence signal of ABP_L6Q in the presence of amantadine, compared with apo-ABP_L6Q", "setting": "ABP_L6Q", "value": "lowered; also recorded: much lower"}, {"measurement": "effect of amantadine on the melting curve of 2L6HC3_13", "setting": "2L6HC3_13", "value": "no effect"}, {"measurement": "loss in CD signal of ABP on heating to 95° C. in the presence of amantadine", "setting": "ABP; 1 mM amantadine", "value": "not significantly altered"}, {"measurement": "thermal stability of ABP by CD spectrum in the presence of amantadine", "setting": "ABP; 5 mM amantadine, 25, 75, 95° C.", "value": "not significantly affected"}]}
{"molecule": "B1", "values": [{"measurement": "initial fluorescence signal of the apo protein (thermofluor melting curve)", "setting": "[2]", "value": "very low"}, {"measurement": "temperature at which the protein starts to denature (thermofluor)", "setting": "[2]; thermofluor assay, 25 to 95° C.", "value": "~80", "unit": "°C"}]}
{"molecule": "B2", "values": [{"measurement": "initial fluorescence signal of the apo protein (thermofluor melting curve)", "setting": "[2]", "value": "high"}, {"measurement": "thermal stability of the all α-helical structure by CD spectrum", "setting": "[3]", "value": "fairly stable up to 75 °C"}, {"measurement": "oligomeric state by SEC-MALS", "setting": "[4]", "value": "trimer"}]}
{"molecule": "B3", "values": [{"measurement": "binding result", "setting": "[5]", "value": "binds"}]}
